Reference: patent publication US20110162109A1 (BASF PLANT SCIENCE, published 2011)

What was measured:
[1] = target: histone H2B
[2] = target: T1, HUB2, At1g55250, Arabidopsis thaliana (Arabidopsis thaliana, UniProt Q9C895 1-900); assay: tandem affinity purification with NTAP-tagged HUB1pm
T1 construct: As prey the endogenous protein of Arabidopsis cell culture; as bait N-terminal GS-TAP fusion; in yeast two-hybrid an AD fusion; also called AAG51572.1
T1 sequence: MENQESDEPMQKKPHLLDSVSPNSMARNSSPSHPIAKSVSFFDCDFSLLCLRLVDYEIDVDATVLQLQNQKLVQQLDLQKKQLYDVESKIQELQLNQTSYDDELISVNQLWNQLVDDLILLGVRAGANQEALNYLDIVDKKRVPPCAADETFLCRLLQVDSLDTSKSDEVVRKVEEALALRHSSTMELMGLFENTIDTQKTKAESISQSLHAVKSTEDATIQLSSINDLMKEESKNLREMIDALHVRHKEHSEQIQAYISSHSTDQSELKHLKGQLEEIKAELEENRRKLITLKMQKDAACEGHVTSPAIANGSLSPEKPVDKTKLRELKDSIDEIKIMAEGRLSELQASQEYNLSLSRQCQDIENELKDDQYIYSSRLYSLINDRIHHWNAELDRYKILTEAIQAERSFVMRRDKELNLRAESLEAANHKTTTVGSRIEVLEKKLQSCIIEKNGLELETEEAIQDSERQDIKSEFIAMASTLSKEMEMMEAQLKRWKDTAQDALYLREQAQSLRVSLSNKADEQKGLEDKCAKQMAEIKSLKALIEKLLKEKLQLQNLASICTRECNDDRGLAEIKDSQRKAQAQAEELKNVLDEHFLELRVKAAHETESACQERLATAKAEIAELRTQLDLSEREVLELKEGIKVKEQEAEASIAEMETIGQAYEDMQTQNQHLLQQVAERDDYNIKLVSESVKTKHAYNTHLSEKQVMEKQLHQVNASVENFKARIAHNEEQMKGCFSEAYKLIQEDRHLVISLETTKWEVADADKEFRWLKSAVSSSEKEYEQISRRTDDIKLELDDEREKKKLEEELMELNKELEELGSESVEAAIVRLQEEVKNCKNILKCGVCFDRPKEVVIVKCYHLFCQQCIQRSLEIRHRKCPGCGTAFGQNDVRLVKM
Experimental: (§1) Because the RING proteins have their functionally important domain at the C-terminus, an N-terminal fusion was prepared instead of the traditional C-terminal fusion by cloning both full length and the point mutant form of HUB1 (HUB1pm, HUB1fl). The Arabidopsis cell cultures were transformed with the two constructs and cultivated on 10 litre scale, harvested and purified by TAP (Van Leene et al., Mol. Cell. Proteomics 6, 1226-38, 2007). The protein extracts were separated on 1-D SDS-PAGE gels and isolated from gel for protein identification by mass spectrometry (Laukens et al., Proteomics. 4, 720-7, 2004, Van Leene et al., 2007). Two cut offs were used resulting in “confirmed” and “to be confirmed” candidate interactor lists (Table I).
(§2) In the data set of confirmed interactors TAP HUB1 and HUB2 were present, […] the dimer formation between the homologues. In addition, the acetyltransferase GCN5, RNA binding proteins and a KH domain protein were identified as HUB1 interacting proteins. Most of these proteins are known to be localized in nucleus or nucleoli. GFP constructs of HUB1 have also been localized to nucleus (Liu et al., 2007). When HUB1pm was used for TAP purification no HUB2 could be identified as an interacting protein.

[3] = target: T2, LUG/RON2, At4G32551 (Arabidopsis thaliana, UniProt Q9FUY2 1-931); assay: yeast two-hybrid
T2 construct: Endogenous prey in TAP; fusion protein in yeast two-hybrid
T2 sequence (looked up): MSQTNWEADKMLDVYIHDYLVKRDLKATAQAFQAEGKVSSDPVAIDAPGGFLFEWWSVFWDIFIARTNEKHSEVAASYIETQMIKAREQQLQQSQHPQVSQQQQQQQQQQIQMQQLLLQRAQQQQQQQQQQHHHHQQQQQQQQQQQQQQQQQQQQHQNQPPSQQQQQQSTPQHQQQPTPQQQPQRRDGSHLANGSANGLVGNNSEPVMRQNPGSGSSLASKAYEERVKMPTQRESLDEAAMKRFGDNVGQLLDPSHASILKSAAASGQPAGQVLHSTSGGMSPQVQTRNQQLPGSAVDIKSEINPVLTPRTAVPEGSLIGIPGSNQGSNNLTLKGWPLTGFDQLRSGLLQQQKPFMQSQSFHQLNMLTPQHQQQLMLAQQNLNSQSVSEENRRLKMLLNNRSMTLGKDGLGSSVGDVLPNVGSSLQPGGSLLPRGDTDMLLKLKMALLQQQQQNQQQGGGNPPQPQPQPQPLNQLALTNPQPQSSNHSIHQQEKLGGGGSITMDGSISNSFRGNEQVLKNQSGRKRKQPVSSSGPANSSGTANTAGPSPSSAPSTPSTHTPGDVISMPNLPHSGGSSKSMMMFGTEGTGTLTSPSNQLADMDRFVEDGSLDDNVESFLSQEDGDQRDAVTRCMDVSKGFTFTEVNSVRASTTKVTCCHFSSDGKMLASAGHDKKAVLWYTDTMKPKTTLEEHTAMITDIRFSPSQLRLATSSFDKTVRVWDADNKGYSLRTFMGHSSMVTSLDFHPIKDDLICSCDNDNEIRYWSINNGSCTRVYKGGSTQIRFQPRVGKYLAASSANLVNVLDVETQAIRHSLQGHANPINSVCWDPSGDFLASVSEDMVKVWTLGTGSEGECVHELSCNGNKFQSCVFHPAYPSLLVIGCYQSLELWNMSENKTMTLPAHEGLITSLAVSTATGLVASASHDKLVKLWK

[4] = target: T3, HUB1 (Histone Monoubiquitination 1), At2g44950, Arabidopsis thaliana (Arabidopsis thaliana, UniProt Q8RXD6 1-878); assay: TAP with N-terminally TAP-tagged HUB1, mass spectrometry; column To be confirmed (interacted only once)
T3 construct: Full length HUB1; In the TAP experiments N-terminally fused to the TAP tag or the GS-TAP tag; in yeast two-hybrid fused to AD (pDEST22) or BD (pDEST32); all these constructs are written under this one entry; also called HUB1fl; full length HUB1
T3 sequence: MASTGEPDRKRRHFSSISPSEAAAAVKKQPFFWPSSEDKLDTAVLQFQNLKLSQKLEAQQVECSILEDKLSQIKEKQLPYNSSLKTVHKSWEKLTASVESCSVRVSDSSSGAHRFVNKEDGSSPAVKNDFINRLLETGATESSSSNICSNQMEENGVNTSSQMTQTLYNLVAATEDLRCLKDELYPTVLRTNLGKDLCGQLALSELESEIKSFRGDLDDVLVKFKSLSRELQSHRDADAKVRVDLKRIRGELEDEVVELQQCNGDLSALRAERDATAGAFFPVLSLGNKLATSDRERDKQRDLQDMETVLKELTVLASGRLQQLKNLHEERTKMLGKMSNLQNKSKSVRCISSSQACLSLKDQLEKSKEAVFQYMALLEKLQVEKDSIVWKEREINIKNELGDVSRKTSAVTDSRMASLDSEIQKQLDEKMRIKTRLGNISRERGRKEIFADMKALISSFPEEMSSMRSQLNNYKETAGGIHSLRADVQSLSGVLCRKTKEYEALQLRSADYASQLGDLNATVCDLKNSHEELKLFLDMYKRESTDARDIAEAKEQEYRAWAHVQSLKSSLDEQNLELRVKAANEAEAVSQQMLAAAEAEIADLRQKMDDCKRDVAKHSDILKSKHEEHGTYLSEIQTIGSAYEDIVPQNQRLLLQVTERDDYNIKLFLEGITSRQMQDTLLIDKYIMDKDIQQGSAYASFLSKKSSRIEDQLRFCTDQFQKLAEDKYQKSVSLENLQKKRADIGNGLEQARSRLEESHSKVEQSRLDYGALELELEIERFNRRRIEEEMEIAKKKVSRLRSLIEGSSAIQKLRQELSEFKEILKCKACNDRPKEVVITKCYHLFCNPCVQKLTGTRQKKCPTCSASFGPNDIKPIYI
Experimental: as §1, §2

[5] = target: UBC2, At2g02760 (Arabidopsis thaliana) (UniProt P42745); assay: GS-TAP purification + MALDI-TOF-TOF MS, bait UBC2 (second block, as the rows stand); expectance is the MS identification score
Chain of UBC2, At2g02760 (Arabidopsis thaliana) (P42745 whole entry): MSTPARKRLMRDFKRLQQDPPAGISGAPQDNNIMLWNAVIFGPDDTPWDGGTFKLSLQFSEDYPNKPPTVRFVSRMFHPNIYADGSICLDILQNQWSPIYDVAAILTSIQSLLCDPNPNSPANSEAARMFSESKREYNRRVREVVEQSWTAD

B1: HUB1pm (HUB1 point mutant, Cys residues nr 1 and 2 of the C3HC4 RING domain changed into Ser) (enzyme)
chain: MASTGEPDRKRRHFSSISPSEAAAAVKKQPFFWPSSEDKLDTAVLQFQNLKLSQKLEAQQVECSILEDKLSQIKEKQLPYNSSLKTVHKSWEKLTASVESCSVRVSDSSSGAHRFVNKEDGSSPAVKNDFINRLLETGATESSSSNICSNQMEENGVNTSSQMTQTLYNLVAATEDLRCLKDELYPTVLRTNLGKDLCGQLALSELESEIKSFRGDLDDVLVKFKSLSRELQSHRDADAKVRVDLKRIRGELEDEVVELQQCNGDLSALRAERDATAGAFFPVLSLGNKLATSDRERDKQRDLQDMETVLKELTVLASGRLQQLKNLHEERTKMLGKMSNLQNKSKSVRCISSSQACLSLKDQLEKSKEAVFQYMALLEKLQVEKDSIVWKEREINIKNELGDVSRKTSAVTDSRMASLDSEIQKQLDEKMRIKTRLGNISRERGRKEIFADMKALISSFPEEMSSMRSQLNNYKETAGGIHSLRADVQSLSGVLCRKTKEYEALQLRSADYASQLGDLNATVCDLKNSHEELKLFLDMYKRESTDARDIAEAKEQEYRAWAHVQSLKSSLDEQNLELRVKAANEAEAVSQQMLAAAEAEIADLRQKMDDCKRDVAKHSDILKSKHEEHGTYLSEIQTIGSAYEDIVPQNQRLLLQVTERDDYNIKLFLEGITSRQMQDTLLIDKYIMDKDIQQGSAYASFLSKKSSRIEDQLRFCTDQFQKLAEDKYQKSVSLENLQKKRADIGNGLEQARSRLEESHSKVEQSRLDYGALELELEIERFNRRRIEEEMEIAKKKVSRLRSLIEGSSAIQKLRQELSEFKEILKSKASNDRPKEVVITKCYHLFCNPCVQKLTGTRQKKCPTCSASFGPNDIKPIYI
notes: In TAP N-terminally TAP-tagged; also called HUBpm; At2g44950 Arabidopsis thaliana point mutation
With B1 the “monoubiquitination of histone H2B in the in vitro ubiquitination assay (protein gel blot)” value [1] was “shift of H2B by 10 kDa” and the binding result [2] was “no binding”.

B2: SEUSS, At1g43850 (other, Arabidopsis thaliana, UniProt Q8W234 1-877, looked up)
chain: MVPSEPPNPVGGGENVPPSILGGQGGAPLPSQPAFPSLVSPRTQFGNNMSMSMLGNAPNISSLLNNQSFVNGIPGSMISMDTSGAESDPMSNVGFSGLSSFNASSMVSPRSSGQVQGQQFSNVSANQLLAEQQRNKKMETQSFQHGQQQSMQQQFSTVRGGGLAGVGPVKMEPGQVSNDQQHGQVQQQQQKMLRNLGSVKLEPQQIQAMRNLAQVKMEPQHSEQSLFLQQQQRQQQQQQQQQFLQMPGQSPQAQMNIFQQQRLMQLQQQQLLKSMPQQRPQLPQQFQQQNLPLRPPLKPVYEPGMGAQRLTQYMYRQQHRPEDNNIEFWRKFVAEYFAPNAKKRWCVSMYGSGRQTTGVFPQDVWHCEICNRKPGRGFEATAEVLPRLFKIKYESGTLEELLYVDMPRESQNSSGQIVLEYAKATQESVFEHLRVVRDGQLRIVFSPDLKIFSWEFCARRHEELIPRRLLIPQVSQLGSAAQKYQQAAQNATTDSALPELQNNCNMFVASARQLAKALEVPLVNDLGYTKRYVRCLQISEVVNSMKDLIDYSRETRTGPIESLAKFPRRTGPSSALPGPSPQQASDQLRQQQQQQQQQQQQQQQQQQQQQQQQTVSQNTNSDQSSRQVALMQGNPSNGVNYAFNAASASTSTSSIAGLIHQNSMKGRHQNAAYNPPNSPYGGNSVQMQSPSSSGTMVPSSSQQQHNLPTFQSPTSSSNNNNPSQNGIPSVNHMGSTNSPAMQQAGEVDGNESSSVQKILNEILMNNQAHNNSSGGSMVGHGSFGNDGKGQANVNSSGVLLMNGQVNNNNNTNIGGAGGFGGGIGQSMAANGINNINGNNSLMNGRVGMMVRDPNGQQDLGNQLLGAVNGFNNFDWNA
notes: As prey endogenous; as bait N-terminal GS-TAP fusion; in yeast two-hybrid an AD fusion
With B2 the binding result [3] was “binds”, the binding result [4] was “binds” and the Expectance [5] was 1e-24.
